Assay results taken from patent US7267959B2, “Drug target within the sulfonylurea receptor” (priority 2001, dated 2007).

Key:
[1] = target: T1, KATP channel (SUR1/KATP complex) in insulinoma HIT cells (Cricetus cricetus, UniProt Q09427); test: KATP whole-cell patch-clamp currents in insulinoma HIT cells; format: cell-based
T1 construct: in HIT cells on the endogenous KATP whole-cell currents; endogenous in cells; host or cells: insulinoma HIT cells
Procedure: Representative KATP whole-cell patch-clamp currents recorded from the control and syntaxin-1A overespressing HIT cells are shown in FIG. 6A. Cells were stimulated by voltage steps from −140 to 0 mV from a holding potential of −50 mV. […] All currents were recorded 15 min after the formation of the whole-cell configuration when a cell interior exchanged with the pipette solution containing low (0.3 mM) ATP concentration. […] An asterisk indicates the first minutes of recording after obtaining the whole-cell configuration. Pipette solution contains 3 mM MgADP and only 0.3 mM ATP. […] Currents were measured at −120 mV, and normalized to the maximal current (Imax).

[2] = system: NBF-1 and NBF-2 of SUR-1; test: GST pull-down binding of Syn-1A or SNAP-25 with GST-NBF-1 / GST-NBF-2 of SUR-1, Western blot; details: 375 pmol protein each, 4° C., 2 hours, glutathione beads
Procedure: (§1) GST (control) or GST-NBF-1 or GST-NBF-2 (375 pmol protein)of SUR-1 or SUR-2A, bound to glutathione beads, was incubated with Syn-1A or SNAP-25 (375 pmol protein) in 25 mM Hepes (pH 7.4) with 50 mM NaCl, 0.1% gelatin, 0.1% Triton X-100, 0.1% BSA and 0.2% β-mercaptoethanol at 4° C. for 2 hours. Following washing the beads three times with 20 mM Hepes(pH 7.4) with 150 mM KoAc, 1 mM EDTA, 1 mM MgCl2, 5% glycerol and 0.1% Triton X-100, the samples were subjected to 15% SDS-PAGE, transferred to nitrocellulose membrane and probed with antibody against Syn-1A (1:2000) or SNAP-25 (1:1000).

[3] = system: NBF-1 and NBF-2 of SUR-2A; test: GST pull-down binding of Syn-1A or SNAP-25 with GST-NBF-1 / GST-NBF-2 of SUR-2A, Western blot; details: 375 pmol protein each, 4° C., 2 hours, glutathione beads
Procedure: as §1

[4] = target: T2, KATP channel in rat pancreatic beta cells (Rattus norvegicus, UniProt Q09429); test: KATP whole-cell patch-clamp currents in freshly isolated rat pancreatic beta cells; format: cell-based
T2 construct: recorded from the freshly isolated rat pancreatic beta cells; endogenous in cells; host or cells: freshly isolated rat pancreatic beta cells
Procedure: Representative KATP whole-cell patch-clamp currents recorded from the freshly isolated rat pancreatic beta cells in the absence (control) and presence of recombinant syntaxin-1A protein are shown in FIG. 7A. Cells were stimulated by voltage steps from −140 to −20 mV (or 0 mV) from a holding potential of −50 mV. […] Recombinant syntaxin-1A (10^−3 M) was dialyzed into the cell interior through the patch pipette. […] All currents were recorded 15 min after the formation of the whole-cell configuration when a cell interior exchanged with the pipette solution containing low (0.3 mM) ATP concentration that under control conditions opens the KATP channel.

T1 sequence (Q09427 whole entry, one chain of several): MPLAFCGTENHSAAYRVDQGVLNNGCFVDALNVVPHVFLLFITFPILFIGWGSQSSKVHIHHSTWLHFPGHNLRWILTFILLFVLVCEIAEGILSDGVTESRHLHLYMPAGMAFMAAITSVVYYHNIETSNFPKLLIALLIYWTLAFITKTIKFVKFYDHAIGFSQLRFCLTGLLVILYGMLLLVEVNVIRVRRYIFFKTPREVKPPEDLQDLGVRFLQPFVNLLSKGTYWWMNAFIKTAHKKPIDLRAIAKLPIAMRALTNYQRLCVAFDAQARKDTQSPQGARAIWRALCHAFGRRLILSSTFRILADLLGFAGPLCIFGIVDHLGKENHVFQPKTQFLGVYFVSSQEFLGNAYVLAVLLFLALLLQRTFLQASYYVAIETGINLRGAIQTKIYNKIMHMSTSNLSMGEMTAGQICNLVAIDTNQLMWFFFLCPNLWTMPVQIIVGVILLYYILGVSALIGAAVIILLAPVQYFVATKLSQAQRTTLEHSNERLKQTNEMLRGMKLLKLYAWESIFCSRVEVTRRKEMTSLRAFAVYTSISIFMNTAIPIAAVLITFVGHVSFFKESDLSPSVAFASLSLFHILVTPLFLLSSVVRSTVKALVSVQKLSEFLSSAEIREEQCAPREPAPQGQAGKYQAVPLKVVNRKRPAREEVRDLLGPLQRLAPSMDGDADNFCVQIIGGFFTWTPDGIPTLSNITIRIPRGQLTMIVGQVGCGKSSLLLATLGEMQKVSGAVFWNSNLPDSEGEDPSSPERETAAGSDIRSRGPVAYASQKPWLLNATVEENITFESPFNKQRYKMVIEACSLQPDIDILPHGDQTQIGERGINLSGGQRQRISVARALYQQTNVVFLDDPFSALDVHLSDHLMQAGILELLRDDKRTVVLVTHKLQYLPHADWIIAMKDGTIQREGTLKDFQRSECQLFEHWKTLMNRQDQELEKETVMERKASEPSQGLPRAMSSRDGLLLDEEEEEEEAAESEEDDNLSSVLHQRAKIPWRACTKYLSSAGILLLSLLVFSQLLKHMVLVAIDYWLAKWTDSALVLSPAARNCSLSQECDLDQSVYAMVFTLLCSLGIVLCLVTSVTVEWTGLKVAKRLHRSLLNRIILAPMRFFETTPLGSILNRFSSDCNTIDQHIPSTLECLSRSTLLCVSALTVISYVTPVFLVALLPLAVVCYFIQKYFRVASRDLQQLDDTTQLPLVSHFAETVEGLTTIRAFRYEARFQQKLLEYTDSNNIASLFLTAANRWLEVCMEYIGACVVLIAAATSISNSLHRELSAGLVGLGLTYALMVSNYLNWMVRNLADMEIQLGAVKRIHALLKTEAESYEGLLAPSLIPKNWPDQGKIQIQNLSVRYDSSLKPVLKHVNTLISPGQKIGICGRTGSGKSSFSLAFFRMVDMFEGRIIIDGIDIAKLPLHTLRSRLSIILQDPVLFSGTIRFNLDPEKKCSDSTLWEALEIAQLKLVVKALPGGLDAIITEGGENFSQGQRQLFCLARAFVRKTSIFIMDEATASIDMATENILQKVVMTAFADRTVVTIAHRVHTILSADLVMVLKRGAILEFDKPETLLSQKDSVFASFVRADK
T2 sequence (Q09429 whole entry): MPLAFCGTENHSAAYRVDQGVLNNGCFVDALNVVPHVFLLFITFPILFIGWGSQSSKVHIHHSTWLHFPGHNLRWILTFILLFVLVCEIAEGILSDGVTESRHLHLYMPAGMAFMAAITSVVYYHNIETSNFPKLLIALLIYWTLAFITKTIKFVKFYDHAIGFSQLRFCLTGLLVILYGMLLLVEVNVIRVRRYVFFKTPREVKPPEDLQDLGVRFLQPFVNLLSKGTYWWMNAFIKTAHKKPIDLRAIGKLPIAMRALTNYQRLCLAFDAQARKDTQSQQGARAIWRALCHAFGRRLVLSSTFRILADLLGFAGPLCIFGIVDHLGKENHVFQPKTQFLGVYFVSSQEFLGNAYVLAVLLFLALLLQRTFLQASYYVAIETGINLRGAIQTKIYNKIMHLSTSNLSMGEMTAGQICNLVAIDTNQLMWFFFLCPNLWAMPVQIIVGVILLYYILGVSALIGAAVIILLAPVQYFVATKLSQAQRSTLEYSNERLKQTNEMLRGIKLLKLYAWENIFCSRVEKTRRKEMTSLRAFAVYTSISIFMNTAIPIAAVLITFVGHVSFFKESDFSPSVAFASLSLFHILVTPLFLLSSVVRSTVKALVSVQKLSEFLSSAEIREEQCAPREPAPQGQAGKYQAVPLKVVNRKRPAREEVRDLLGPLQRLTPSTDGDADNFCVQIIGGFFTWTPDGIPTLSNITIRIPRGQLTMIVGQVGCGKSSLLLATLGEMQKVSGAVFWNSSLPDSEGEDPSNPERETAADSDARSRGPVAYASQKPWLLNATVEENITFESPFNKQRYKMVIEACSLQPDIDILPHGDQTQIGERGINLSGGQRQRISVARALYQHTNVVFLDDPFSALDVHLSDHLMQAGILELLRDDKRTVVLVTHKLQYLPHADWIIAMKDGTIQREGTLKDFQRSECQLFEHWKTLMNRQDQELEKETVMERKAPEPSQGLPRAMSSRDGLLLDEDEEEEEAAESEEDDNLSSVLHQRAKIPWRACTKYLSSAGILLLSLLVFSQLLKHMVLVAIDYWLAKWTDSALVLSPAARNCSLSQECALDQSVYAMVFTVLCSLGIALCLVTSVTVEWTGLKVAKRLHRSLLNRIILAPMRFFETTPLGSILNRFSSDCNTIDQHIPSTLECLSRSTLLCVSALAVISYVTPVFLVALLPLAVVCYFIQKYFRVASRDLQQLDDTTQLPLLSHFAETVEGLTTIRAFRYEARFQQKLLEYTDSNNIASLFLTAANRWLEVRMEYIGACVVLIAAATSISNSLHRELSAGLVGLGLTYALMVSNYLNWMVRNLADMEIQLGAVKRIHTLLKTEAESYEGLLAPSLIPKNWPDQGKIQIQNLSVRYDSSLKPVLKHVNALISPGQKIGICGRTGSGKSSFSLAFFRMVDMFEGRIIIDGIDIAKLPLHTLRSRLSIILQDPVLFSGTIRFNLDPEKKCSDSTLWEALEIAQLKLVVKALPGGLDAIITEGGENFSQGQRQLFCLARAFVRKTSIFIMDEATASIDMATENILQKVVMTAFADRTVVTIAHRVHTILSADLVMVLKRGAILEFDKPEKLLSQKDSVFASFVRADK
T2 sequence (P70673 whole entry partner): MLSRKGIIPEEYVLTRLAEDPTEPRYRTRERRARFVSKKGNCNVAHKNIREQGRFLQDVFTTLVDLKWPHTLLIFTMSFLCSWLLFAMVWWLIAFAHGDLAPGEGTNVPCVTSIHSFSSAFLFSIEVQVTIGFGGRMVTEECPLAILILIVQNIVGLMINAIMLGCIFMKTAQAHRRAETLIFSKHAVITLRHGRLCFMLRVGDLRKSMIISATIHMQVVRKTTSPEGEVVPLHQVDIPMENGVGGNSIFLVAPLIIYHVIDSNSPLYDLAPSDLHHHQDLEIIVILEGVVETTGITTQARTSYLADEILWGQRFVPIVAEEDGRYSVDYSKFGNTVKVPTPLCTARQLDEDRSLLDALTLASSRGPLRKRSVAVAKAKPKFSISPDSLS

| Substance | reversal of syntaxin-1A inhibited KATP current at t=15 min compared with t=0 min ([1]; MgADP 3 mM in pipette, 0.3 mM ATP, syntaxin-1A overexpressing HIT cells, measured at −120 mV) [%] | binding (pull down) to NBF-1 and NBF-2 of SUR1 [2] | binding (pull down) to NBF-1 and NBF-2 of SUR2A [3] | KATP whole-cell currents versus control cells ([1]; HIT cells transfected with (overexpressing) syntaxin-1A, pipette 0.3 mM ATP, 15 min) | KATP whole-cell current at t=15 min relative to t=0 min ([1]; syntaxin-1A overexpressing HIT cells (>3 fold by Western), pipette 0.3 mM ATP, measured at −140 mV) | KATP whole-cell currents versus control beta cells ([4]; recombinant syntaxin-1A 10^−3 M dialyzed through patch pipette, 0.3 mM ATP, 15 min) | inhibitory effect on mean KATP whole cell-currents (channel activity) ([4]; recombinant syntaxin-1A, 0.3 mM ATP in pipette, measured at −120 mV, recorded for 15 minutes) |
| --- | --- | --- | --- | --- | --- | --- | --- |
| MgADP [reference compound] | 46 | – | – | – | – | – | – |
| syntaxin-1A: endogenous SNARE superfamily protein; recombinant rat syntaxin-1A (SEQ ID NO: 1) or overexpressed in cells | – | directly ‘pulled’ down | directly ‘pulled’ down | reduced compared with the control cells | remained unchanged | reduced compared with the control beta cells | strongly inhibits |
